T1: human FcγRIIB α subunit extracellular domain-His6-GST fusion (human, UniProt P31994 43-217)
T1 construct: extracellular domain; also called CD32; not shown: glutathione S transferase (GST)
T1 sequence: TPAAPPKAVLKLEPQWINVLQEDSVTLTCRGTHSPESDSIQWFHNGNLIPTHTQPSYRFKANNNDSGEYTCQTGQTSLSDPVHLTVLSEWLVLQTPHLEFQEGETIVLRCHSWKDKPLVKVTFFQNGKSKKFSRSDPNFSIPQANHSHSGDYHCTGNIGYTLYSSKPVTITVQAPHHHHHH

T2: human FcγRIIA-Arg131 α subunit extracellular domain-His6-GST fusion (human, UniProt P12318 34-217)
T2 construct: extracellular domain; also called FcγRIIA-R131; not shown: glutathione S transferase (GST)
T2 sequence: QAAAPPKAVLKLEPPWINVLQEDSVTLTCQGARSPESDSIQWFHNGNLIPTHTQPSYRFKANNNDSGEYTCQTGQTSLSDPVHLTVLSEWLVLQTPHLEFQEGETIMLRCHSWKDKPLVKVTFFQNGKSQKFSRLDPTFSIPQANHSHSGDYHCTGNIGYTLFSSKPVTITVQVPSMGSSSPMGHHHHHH

T3: human FcγRIIA-R131 α subunit extracellular domain-His6-GST fusion (human, UniProt P12318 34-217)
T3 construct: ECD-6His-GST fusion made in 293 cells; also called FcγRIIA-Arg131; not shown: glutathione S transferase (GST)
T3 sequence: T2 sequence

B1: anti-IgE E27 IgG1 variant K334(353)R (antibody)
heavy: not shown
light: DIQLTQSPSSLSASVGDRVTITCRASKPVDGEGDSYLNWYQQKPGKAPKLLIYAASYLESGVPSRFSGSGSGTDFTLTISSLQPEDFATYYCQQSHEDPYTFGQGTKVEIKRTVAAPSVFIFPPSDEQLKSGTASVVCLLNNFYPREAKVQWKVDNALQSGNSQESVTEQDSKDSTYSLSSTLTLSKADYEKHKVYACEVTHQGLSSPVTKSFNRGEC
notes: Fc variant of E27; also called Lys334Arg
B2: anti-IgE E27 IgG1 variant E283(300)A (antibody)
heavy: not shown
light: B1 light
notes: Fc variant of E27; also called IG2 25
B3: anti-IgE E27 IgG1 variant E294(311)Q (antibody)
heavy: not shown
light: B1 light
notes: Fc variant of E27; also called IG2 173
B4: anti-IgE E27 IgG1 variant E283(300)N (antibody)
heavy: not shown
light: B1 light
notes: Fc variant of E27; also called IG2 228
B5: anti-IgE E27 IgG1 variant E283(300)D (antibody)
heavy: not shown
light: B1 light
notes: Fc variant of E27
B6: anti-IgE E27 IgG1 variant E294(311)A (antibody)
heavy: not shown
light: B1 light
notes: Fc variant of E27; also called IG2 33
B7: anti-IgE E27 IgG1 variant E380(405)A/L309(328)A (antibody)
heavy: not shown
light: B1 light
notes: Fc variant of E27; also called IG2 271; Glu380Ala/Leu309Ala
B8: anti-IgE E27 IgG1 variant P331(350)S (antibody)
heavy: not shown
light: B1 light
notes: Fc variant of E27; also called IG2 198; Pro331Ser
B9: anti-IgE E27 IgG1 variant P331(350)K (antibody)
heavy: not shown
light: B1 light
notes: Fc variant of E27
B10: anti-IgE E27 IgG1 variant E283(300)S (antibody)
heavy: not shown
light: B1 light
notes: Fc variant of E27; also called IG2 227
B11: anti-IgE E27 IgG1 variant P331(350)N (antibody)
heavy: not shown
light: B1 light
notes: Fc variant of E27; also called IG2 199
B12: anti-IgE E27 IgG1 variant E283(300)Q (antibody)
heavy: not shown
light: B1 light
notes: Fc variant of E27; also called IG2 226
B13: anti-IgE E27 IgG1 variant E333(352)G (antibody)
heavy: not shown
light: B1 light
notes: Fc variant of E27; also called IG2 178
B14: anti-IgE E27 IgG1 variant E294(311)D (antibody)
heavy: not shown
light: B1 light
notes: Fc variant of E27; also called IG2 174
B15: anti-IgE E27 IgG1 variant P331(350)E (antibody)
heavy: not shown
light: B1 light
notes: Fc variant of E27; also called IG2 200
B16: anti-IgE E27 IgG1 Ser267Ala (antibody)
heavy: not shown
light: B1 light
notes: also called G15 S267A
B17: anti-IgE E27 IgG1 Ser415Ala (antibody)
heavy: not shown
light: B1 light
B18: anti-IgE E27 IgG1 Thr307Ala (antibody)
heavy: not shown
light: B1 light
B19: anti-IgE E27 IgG1 Ser424Ala (antibody)
heavy: not shown
light: B1 light
B20: anti-IgE E27 IgG1 Ser337Ala (antibody)
heavy: not shown
light: B1 light
B21: anti-IgE E27 IgG1 Val305Ala (antibody)
heavy: not shown
light: B1 light
B22: anti-IgE E27 IgG1 Val303Ala (antibody)
heavy: not shown
light: B1 light
B23: anti-IgE E27 IgG1 Ser298Ala (antibody)
heavy: not shown
light: B1 light
notes: also called G36 S298A
B24: anti-IgE E27 IgG1 Thr256Ala (antibody)
heavy: not shown
light: B1 light

Molecular target: T4, human FcγRIIIA-V158 α subunit extracellular domain-His6-GST fusion (human, UniProt P08637 17-208)
T4 construct: ECD-6His-GST fusion made in 293 cells; also called FcγRIIIA-Val158; not shown: glutathione S transferase (GST)
T4 sequence (P08637 other isoform, or with tags, fused parts or gaps, form in doubt): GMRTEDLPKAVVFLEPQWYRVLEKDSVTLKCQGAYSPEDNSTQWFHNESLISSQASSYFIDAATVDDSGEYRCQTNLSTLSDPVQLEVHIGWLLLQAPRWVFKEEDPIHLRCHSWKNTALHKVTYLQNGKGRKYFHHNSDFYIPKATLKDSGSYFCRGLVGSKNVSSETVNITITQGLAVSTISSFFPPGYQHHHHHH
Assay: ELISA, IgG monomer, receptor coated

Row | Binder | ratio of binding, variant/native IgG1 (mean)
1 | B1 | 0.88 ratio
2 | B2 | 0.78 ratio
3 | B3 | 0.79 ratio
4 | B4 | 0.63 ratio
5 | B5 | 0.67 ratio
6 | B6 | 0.68 ratio
7 | B7 | 1.1 ratio
8 | B8 | 0.54 ratio
9 | B9 | 0.26 ratio
10 | B10 | 0.83 ratio
11 | B11 | 0.24 ratio
12 | B12 | 0.89 ratio
13 | B13 | 1.23 ratio
14 | B14 | 0.26 ratio
15 | B15 | 0.36 ratio

Molecular target: T5, human FcγRIA α subunit extracellular domain-His6-GST fusion (human, UniProt P12314 16-292)
T5 construct: extracellular domain; also called GST-FcγRIA; CD64; not shown: glutathione S transferase (GST)
T5 sequence (P12314 other isoform, or with tags, fused parts or gaps): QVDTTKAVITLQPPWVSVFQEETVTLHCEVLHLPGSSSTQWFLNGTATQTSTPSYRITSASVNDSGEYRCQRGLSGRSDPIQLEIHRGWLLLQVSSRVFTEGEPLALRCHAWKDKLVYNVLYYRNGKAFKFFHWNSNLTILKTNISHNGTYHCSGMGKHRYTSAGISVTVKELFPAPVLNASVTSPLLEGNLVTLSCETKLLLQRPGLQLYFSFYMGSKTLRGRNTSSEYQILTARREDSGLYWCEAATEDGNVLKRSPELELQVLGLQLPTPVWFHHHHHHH
Assay: FcγRI ELISA and THP-1 cells, averaged

Row | Binder | ratio to native IgG1
16 | B16 | 1.09 ratio
17 | B17 | 1.04 ratio
18 | B18 | 0.99 ratio
19 | B19 | 0.98 ratio
20 | B20 | 1.17 ratio
21 | B21 | 1.04 ratio
22 | B22 | 0.91 ratio
23 | B23 | 1.11 ratio
24 | B24 | 1.01 ratio

Molecular target: T1, human FcγRIIB α subunit extracellular …
Assay: hexamer ELISA

Row | Binder | ratio to native IgG1
25 | B16 | 1.84 ratio
26 | B17 | 0.88 ratio
27 | B18 | 1.27 ratio
28 | B19 | 1.02 ratio
29 | B20 | 1.26 ratio
30 | B21 | 1.23 ratio
31 | B22 | 0.65 ratio
32 | B23 | 0.23 ratio
33 | B24 | 2.06 ratio

Molecular target: T2, human FcγRIIA-Arg131 α subunit …
Assay: hexamer ELISA

Row | Binder | ratio to native IgG1
34 | B16 | 1.52 ratio
35 | B17 | 0.9 ratio
36 | B18 | 1.07 ratio
37 | B19 | 1.04 ratio
38 | B20 | 1.22 ratio
39 | B21 | 1.12 ratio
40 | B22 | 0.86 ratio
41 | B23 | 0.4 ratio
42 | B24 | 1.41 ratio

Molecular target: T6, human FcγRIIIA-Phe158 α subunit extracellular domain-His6-GST fusion (human, UniProt P08637 17-208)
T6 construct: extracellular domain; also called FcγRIIIA-F158; CD16; not shown: glutathione S transferase (GST)
T6 sequence (P08637 other isoform, or with tags, fused parts or gaps): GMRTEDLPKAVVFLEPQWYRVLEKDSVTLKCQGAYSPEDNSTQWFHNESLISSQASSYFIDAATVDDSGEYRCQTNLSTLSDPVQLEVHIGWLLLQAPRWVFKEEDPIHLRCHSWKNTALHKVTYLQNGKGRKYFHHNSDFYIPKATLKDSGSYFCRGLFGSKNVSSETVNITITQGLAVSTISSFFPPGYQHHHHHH
Assay: hexamer ELISA

Row | Binder | ratio to native IgG1
43 | B16 | 1.05 ratio
44 | B17 | 0.86 ratio
45 | B18 | 1.09 ratio
46 | B19 | 0.89 ratio
47 | B20 | 0.94 ratio
48 | B21 | 0.84 ratio
49 | B22 | 0.33 ratio
50 | B23 | 1.34 ratio
51 | B24 | 1.32 ratio

Molecular target: T7, human neonatal Fc receptor (FcRn), biotinylated (human, UniProt P55899 24-297; P61769 21-119, biotinylated (biotin-X-NHS))
T7 construct: captured on streptavidin plates
T7 sequence (P55899 24-297 limits assumed, chain 1 of 2): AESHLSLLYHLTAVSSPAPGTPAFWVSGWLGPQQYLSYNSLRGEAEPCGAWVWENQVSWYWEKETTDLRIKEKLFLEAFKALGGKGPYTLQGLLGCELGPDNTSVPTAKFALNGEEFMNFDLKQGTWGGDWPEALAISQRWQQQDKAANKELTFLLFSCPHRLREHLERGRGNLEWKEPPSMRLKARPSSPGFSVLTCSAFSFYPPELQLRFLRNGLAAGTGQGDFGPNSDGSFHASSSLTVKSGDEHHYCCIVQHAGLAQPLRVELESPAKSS
T7 sequence (P61769 21-119 limits assumed, chain 2 of 2): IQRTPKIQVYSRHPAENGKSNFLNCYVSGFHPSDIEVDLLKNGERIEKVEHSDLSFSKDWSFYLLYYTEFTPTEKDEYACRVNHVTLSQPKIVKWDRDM
Assay: FcRn ELISA, pH 6.0;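 further: Streptavidin-captured FcRn plates, IgG variants titrated 2 h at pH 6.0, peroxidase anti-human IgG read at 450 nm, variant over standard concentration at the standard curve mid-point absorbance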

Row | Binder | ratio to native IgG1
52 | B16 | 1.08 ratio
53 | B17 | 0.44 ratio
54 | B18 | 1.81 ratio
55 | B19 | 1.41 ratio
56 | B20 | 1.03 ratio
57 | B21 | 1.46 ratio
58 | B22 | 1.26 ratio
59 | B23 | 0.8 ratio
60 | B24 | 1.91 ratio

Molecular target: T8, human FcγRIIIA-F158 α subunit extracellular domain-His6-GST fusion (human, UniProt P08637 17-208)
T8 construct: ECD-6His-GST fusion made in 293 cells; also called FcγRIIIA-Phe158; not shown: glutathione S transferase (GST)
T8 sequence (P08637 other isoform, or with tags, fused parts or gaps, form in doubt): as the sequence (P08637 other isoform, or with tags, fused parts or gaps) above
Assay: ELISA, IgG complex, receptor coated

Row | Binder | ratio of binding, variant/native IgG1 (mean)
61 | B1 | 0.68 ratio
62 | B2 | 1.01 ratio
63 | B3 | 0.84 ratio
64 | B4 | 0.94 ratio
65 | B5 | 0.95 ratio
66 | B6 | 0.66 ratio
67 | B7 | 0.92 ratio
68 | B8 | 0.86 ratio
69 | B9 | 0.33 ratio
70 | B10 | 0.85 ratio
71 | B11 | 0.23 ratio
72 | B12 | 1.19 ratio
73 | B13 | 1.05 ratio
74 | B14 | 0.14 ratio
75 | B15 | 0.42 ratio

Molecular target: T3, human FcγRIIA-R131 α subunit …
Assay: ELISA, IgG complex, receptor coated

Row | Binder | ratio of binding, variant/native IgG1 (mean)
76 | B1 | 1.15 ratio
77 | B2 | 1.24 ratio
78 | B3 | 1.01 ratio
79 | B4 | 1.18 ratio
80 | B5 | 1.14 ratio
81 | B6 | 0.87 ratio
82 | B7 | 0.98 ratio
83 | B8 | 1 ratio
84 | B9 | 0.94 ratio
85 | B10 | 1.03 ratio
86 | B11 | 0.86 ratio
87 | B12 | 1.12 ratio
88 | B13 | 0.87 ratio
89 | B14 | 0.37 ratio
90 | B15 | 1.06 ratio
